Source: patent US20220348647A1 (published 2022)
Positions count from the first letter of the chain named. In names and notes the source's numbering stands.

T1: cyno CCL17 (Macaca fascicularis (cyno), UniProt Q8HYP9 24-94 (rhesus entry))
T1 sequence: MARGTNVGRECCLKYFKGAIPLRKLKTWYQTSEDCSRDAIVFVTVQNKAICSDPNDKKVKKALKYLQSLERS

T2: human CCL17 (human, UniProt Q92583 24-94)
T2 sequence: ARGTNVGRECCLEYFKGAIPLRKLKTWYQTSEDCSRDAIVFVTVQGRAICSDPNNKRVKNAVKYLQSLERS

T3: cyno CCL22 (cyno, UniProt O00626 25-93 (human entry), limits assumed)
T3 construct: Biotinylated in the Fab ELISA; also called cCCL22; CCCL22
T3 chain: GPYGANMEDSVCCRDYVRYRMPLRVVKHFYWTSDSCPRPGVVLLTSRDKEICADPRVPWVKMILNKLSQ

B1: C17B302 (antibody, human IgG2, kappa, V domains shown)
VH: EVQLVQSGAEVKKPGESLKISCKGSGYSFTSYWIGWVRQMPGKGLEWMGIIDPSDSDTRYSPSFQGQVTISADKSISTAYLQWSSLKASDTAMYYCARVGPADVWDAFDYWGQGTLVTVSS
VL: DIVMTQSPDSLAVSLGERATINCKSSQSVLLSFDNINKLAWYQQKPGQPPKLLIYDASTRESGVPDRFSGSGSGTDFTLTISSLQAEDVAVYYCQQFYSVPSTFGQGTKVEIKR
B2: C17B311 (antibody, V domains shown)
VH: B1 VH
VL: DIVMTQSPDSLAVSLGERATINCKSSQSVLLSFDNINKLAWYQQKPGQPPKLLIYDASTRESGVPDRFSGSGSGTDFTLTISSLQAEDVAVYYCQQFYSVPSTFGQGTKVEIK
B3: C17B234 (antibody, V domains shown)
VH: B1 VH with A107S
VL: B2 VL with D56N
notes: Full IgG1, kappa
B4: C17B236 (antibody, V domains shown)
VH: B1 VH with A107S
VL: B2 VL with F33P, D34W, I36S, K38Q, D56G, F97Y, S99L, V100I
notes: Full IgG1, kappa
B5: C17B293 (antibody, IgG1, V domains shown)
VH: B1 VH
VL: B2 VL
notes: Expressed as IgG1; Heavy chain S100cA (Kabat) paired with the light chain of C17B258; also called C17M293
B6: C17B294 (antibody, IgG1, V domains shown)
VH: B1 VH with A107T
VL: B2 VL
notes: Expressed as IgG1; Heavy chain S100cT (Kabat) paired with the light chain of C17B258
B7: C17B262 (antibody, IgG1, V domains shown)
VH: B1 VH with A107S
VL: B2 VL with D56S
notes: Expressed as IgG1; Light chain N50S (Kabat) variant of C17B234
B8: C17B264 (antibody, IgG1, V domains shown)
VH: B1 VH with A107S
VL: B2 VL with D56I
notes: Expressed as IgG1; Light chain N50I (Kabat) variant of C17B234
B9: C17F319 variant W→T at HCDR3 position 100a (Kabat) (Fab, V domains shown)
VH: B1 VH with W105T, A107S
VL: B2 VL with F33P, D34W, I36S, K38Q, D56G, F97Y, S99L, V100I
B10: C17F319 variant W→R at HCDR3 position 100a (Kabat) (Fab, V domains shown)
VH: B1 VH with W105R, A107S
VL: B2 VL with F33P, D34W, I36S, K38Q, D56G, F97Y, S99L, V100I
B11: F24 (Fab, V domains shown)
VH: B1 VH with A107S
VL: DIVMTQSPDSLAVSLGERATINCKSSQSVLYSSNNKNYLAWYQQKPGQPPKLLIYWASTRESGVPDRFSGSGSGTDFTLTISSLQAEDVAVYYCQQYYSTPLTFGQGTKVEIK
notes: Semi-purified Fab with a His tag at the C-terminus of the heavy chain; also called C17F24

What follows are binders tested against T1, cyno CCL17 (assay: cell-based or functional assay).

| IC50 (nM), calcium flux assay in CCRF-CEM cells, 5 ng/ml cyno CCL17 | Binder |
| --- | --- |
| 0.238 nM | B1 |
| 0.239 nM | B2 |
| 0.369 nM | B3 |
| 0.349 nM | B4 |

Each binder was assayed against T2, human CCL17 (assay: cell-based or functional assay).

| IC50 (nM), calcium flux assay in CCRF-CEM cells, 10 ng/ml human CCL17 | Binder |
| --- | --- |
| 0.593 nM | B1 |
| 0.553 nM | B2 |
| 0.421 nM | B3 |
| 0.385 nM | B4 |

Each binder was assayed against T1, cyno CCL17 (assay: solution equilibrium affinity (MSD-SEA), IgG1).
Protocol: (§1) Equal volumes of the anti-hCCL17 mAbs at 40 pM or 200 pM were added to each chemokine dilution to obtain mixtures containing the serial dilution of chemokines starting at a final concentration of […] and a constant concentration (20 pM or 100 pM) of anti-CCL17 antibody. The mixtures were prepared in duplicate and incubated at 4° C. for 48 hours to reach equilibrium. The free antibody was detected using a SECTOR Imager 6000 (Meso Scale Discovery) instrument. The resulting binding curves were fitted to obtain the dissociation equilibrium constant (KD) using the GraphPad Prism software (v 5.01) using a 1:1 binding model to perform nonlinear least-square regression analysis of the data.

| Kd | Binder |
| --- | --- |
| 0.039 nM | B5 |
| 0.022 nM | B6 |
| 0.0555 nM | B7 |
| 0.0718 nM | B8 |

The binders below were run against T2, human CCL17 (assay: solution equilibrium affinity (MSD-SEA), IgG1).
Protocol: as §1

| Kd | Binder |
| --- | --- |
| < 0.1 pM | B5 |
| 1 pM | B6 |
| 0.3 pM | B7 |
| 0.4 pM | B8 |

What follows are binders tested against T2, human CCL17 (assay: not stated in the legend (affinities by MSD-SEA in Examples 3 and 4)).

| Kd | Binder |
| --- | --- |
| ≤ 100 nM | B5 |
| ≤ 100 nM | B6 |
| ≤ 100 nM | B3 |
| ≤ 100 nM | B4 |

Biological target: T1, cyno CCL17
Test: cell-based or functional assay
Remark: another data set of the same source

| IC50 (nM), β-arrestin assay, Hek293 cells co-expressing CCR4, 20 nM CCL17 | Binder |
| --- | --- |
| 13.4 nM | B1 |
| 10.3 nM | B2 |
| 5.39 nM | B3 |
| 9.5 nM | B4 |

Biological target: T2, human CCL17
Test: cell-based or functional assay
Remark: another data set of the same source

| IC50 (nM), β-arrestin assay, Hek293 cells co-expressing CCR4, 20 nM CCL17 | Binder |
| --- | --- |
| 13.9 nM | B1 |
| 10.7 nM | B2 |
| 8.42 nM | B3 |
| 6.98 nM | B4 |

These binders were tested against T2, human CCL17 (assay: ranking ELISA of Fab variants with bt-human CCL17).

| binding result | Binder |
| --- | --- |
| binds | B9 |
| binds | B10 |

The binders below were run against T1, cyno CCL17 (assay: ELISA, Fab captured by anti-kappa, biotinylated chemokine, streptavidin:HRP).
Protocol: (§2) Briefly, Maxisorp 96 well plates were coated with 1 μg/ml Goat anti-human Kappa (Southern Biotech). Semi-purified Fab was added to each plate. […] Proteins bound to the captured Fabs were detected using Streptavidin:HRP.

| binding result | Binder |
| --- | --- |
| binds | B11 |

Biological target: T3, cyno CCL22
Test: as above
Protocol: as §2

| binding result | Binder |
| --- | --- |
| no binding | B11 |

These binders were tested against T2, human CCL17 (assay: MSD-SEA; affinity for human CCL17 against that for cyno CCL17).
Protocol: as §1

| Fold binding human/cyno CCL17 | Binder |
| --- | --- |
| 22 fold | B6 |
| 115 fold | B3 |
| 185 fold | B7 |
| 180 fold | B8 |
| 7.6 fold | B4 |

The binders below were run against T1, cyno CCL17 (assay: solution equilibrium affinity (MSD-SEA), TBST, 48 h at 4 °C).
Protocol: as §1

| Kd | Binder |
| --- | --- |
| 0.23 nM | B3 |
| 0.297 nM | B4 |

What follows are binders tested against T2, human CCL17 in the same assay as above.
Protocol: as §1

| Kd | Binder |
| --- | --- |
| 0.002 nM | B3 |
| 0.039 nM | B4 |
